What was measured:
yeast PEX7 [1] = experiment: Bead-binding assay: PEX5 variants, PEX7 and PTS2 cargo (Extended Data Fig. 2a,c, 6b); design: species or system yeast (S. cerevisiae); conditions: 1 µM PEX7–GFP
Source text: Cysteine-containing peptides were covalently conjugated to thiol-reactive SulfoLink coupling resin (Thermo Fisher, catalogue number 20401) according to the manufacturer’s instructions. The prepared beads were then mixed with Assay Buffer containing the fluorescently labelled protein as well as additional components indicated in the text, and the resulting bead suspensions were transferred to a 384-well glass-bottomed plate (Cellvis, P384-1.5H-N). GST-fusion proteins were instead mixed with glutathione agarose 4B (Prometheus, 20-543) in Assay Buffer containing the fluorescently labelled protein and additional components indicated in the text; the resulting bead suspensions were then transferred to a glass-bottomed plate as above. The plates were incubated at RT for the durations specified in the text and directly imaged on the spinning-disk confocal platform described earlier for peroxisomal import reactions in Xenopus egg extract. Note that imaging the beads directly in the binding reaction preserves the equilibrium and thereby allows even weak interactions to be detected. Fluorescence was collected through a Nikon ×10 0.45 NA Plan Apo air objective, and images were acquired using the Nikon NIS-Elements software and a 16-bit digitizer without binning. Imaging parameters were configured to maximize the SNR while avoiding saturation. […]

[2] = target: T1, yeast PEX7 fused at the C terminus to GFP (PEX7–GFP) (yeast (S. cerevisiae), UniProt P39108 1-375); experiment: bead-binding assay (fluorescence on beads by spinning-disk confocal microscopy); GST-tagged protein on glutathione beads; GFP-fused partner in solution (1 µM each in Extended Data Fig. 9a); 1 h, RT; conditions: both partners purified
T1 construct: PEX7, yeast (S. cerevisiae); not shown: GST, N-terminal, cleaved; GFP, C-terminal, kept
T1 sequence (looked up): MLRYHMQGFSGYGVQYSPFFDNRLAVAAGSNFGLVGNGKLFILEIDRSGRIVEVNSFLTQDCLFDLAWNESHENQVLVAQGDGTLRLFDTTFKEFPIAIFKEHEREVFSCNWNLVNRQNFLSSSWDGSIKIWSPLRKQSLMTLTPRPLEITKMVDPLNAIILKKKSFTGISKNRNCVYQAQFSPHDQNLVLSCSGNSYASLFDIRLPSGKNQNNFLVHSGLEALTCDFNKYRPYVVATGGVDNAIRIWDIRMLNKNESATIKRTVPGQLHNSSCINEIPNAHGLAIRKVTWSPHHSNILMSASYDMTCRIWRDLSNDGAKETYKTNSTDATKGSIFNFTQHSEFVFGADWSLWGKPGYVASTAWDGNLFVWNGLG

yeast PEX7 [3] = target: T2, yeast PEX7 (yeast (S. cerevisiae), UniProt P39108 1-375); experiment: pull-down; quantitative: glutathione agarose with 1 µM yeast PEX7 and varying concentrations of GST-tagged PEX39 variants, Assay Buffer, 25 °C, 1 h; beads sedimented, PEX7 left in the supernatant quantified by SDS–PAGE and Coomassie; observed binding constants (Kobs); conditions: both partners purified
T2 construct: PEX7, yeast (S. cerevisiae); also called purified recombinant yeast PEX7; not shown: GST, N-terminal, cleaved
T2 sequence (looked up): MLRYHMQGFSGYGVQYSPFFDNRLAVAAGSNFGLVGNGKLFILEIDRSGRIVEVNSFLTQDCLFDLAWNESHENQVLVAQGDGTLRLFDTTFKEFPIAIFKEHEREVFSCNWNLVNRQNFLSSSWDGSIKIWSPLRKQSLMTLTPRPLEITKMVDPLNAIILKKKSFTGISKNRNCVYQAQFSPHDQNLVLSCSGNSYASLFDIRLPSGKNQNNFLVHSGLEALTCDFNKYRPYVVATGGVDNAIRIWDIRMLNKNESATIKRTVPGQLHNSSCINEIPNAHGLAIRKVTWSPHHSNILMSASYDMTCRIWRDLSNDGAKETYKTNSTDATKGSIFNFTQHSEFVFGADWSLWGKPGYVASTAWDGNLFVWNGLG

yeast PEX7 [4] = target: T2, yeast PEX7; experiment: pull-down; competition: glutathione beads with yeast PEX7 and GST-tagged PEX39 ∆APH (each 1 µM), 30 min at 25 °C, then varying concentrations of peptide for 1 h; beads sedimented, supernatant on SDS–PAGE with Coomassie; competitive-binding isotherm, observed binding constants (Kobs); conditions: both partners purified
[5] = target: T1, yeast PEX7 fused at the C terminus to …; experiment: bead-binding assay (fluorescence on beads by spinning-disk confocal microscopy); peptide or YG-domain polypeptide conjugated through a cysteine to thiol-reactive beads; PEX7–GFP or GFP alone in Assay Buffer (25 mM HEPES-NaOH pH 7.8, 150 mM NaCl, 1 mM TCEP), RT, 1 h (Fig. 3b); beads imaged directly in the binding reaction; conditions: both partners purified
[6] = system: S. cerevisiae cells expressing RFP–FOX2 and POT1–GFP; experiment: Peroxisomal protein import assay in S. cerevisiae; type: cell-based; conditions: yeast expressing PTS1 and PTS2 matrix proteins
Experimental: Peroxisome biogenesis was induced in S. cerevisiae using an established procedure. Briefly, cells were subcultured twice in YPD medium to mid-log phase (optical density at 600 nm (OD600) ≈ 2), harvested through centrifugation at 2,000g and 30 °C for 10 min, sterilely resuspended to an OD600 of 0.5 in YPGO medium (1% wt/vol yeast extract, 2% wt/vol peptone, 2% vol/vol glycerol, 0.1% wt/vol oleic acid and 0.25% vol/vol Tween 40) and cultured for an additional 16 h at 30 °C. For experiments involving PEX7 riboswitch constructs, cultures in YPGO were supplemented with 250 µM tetracycline (Millipore Sigma, T7660) as described previously.
S. cerevisiae cells expressing RFP–FOX2 and POT1–GFP (MSB-462) were induced to form peroxisomes as described earlier. […]
The cells were imaged on a spinning-disk confocal platform consisting of a Nikon Eclipse Ti inverted microscope, a Yokagawa CSU-X1 spinning-disk confocal scanner, a Hamamatsu ORCA-Fusion BT sCMOS camera and a Prior Proscan II motorized stage. […] Fluorescence was collected using a red-emission ET605/52 m (605 ± 26 nm) or a green-emission ET525/50 m (525 ± 25 nm) single-band bandpass filter (Chroma), respectively, through either a Nikon ×100 1.45 numerical aperture (NA) Plan Apo Lambda or Nikon ×40 0.95 NA Plan Apo Lambda air objective. […]

[7] = system: PEX7–FLAG in peroxisome-containing membrane fraction; experiment: Cell fractionation and FLAG immunoprecipitation / immunoblot of PEX7–FLAG and PEX39–FLAG; type: cell-based, S. cerevisiae; conditions: PEX13 lacking the KPWE motif; yeast in oleic acid
Experimental: Samples in Laemmli buffer (50 mM Tris–HCl pH 6.8 at RT, 10% vol/vol glycerol, 2% wt/vol SDS, 0.01% bromophenol blue and 700 mM β-mercaptoethanol) were heated for 5 min at 95 °C and then electrophoretically resolved under denaturing conditions on 4–20% TGX precast polyacrylamide gels (Bio-Rad, catalogue number 5671095). For immunoblotting, samples were transferred from the gels to Immun-Blot PVDF membranes (Bio-Rad, catalogue number 13709A06) for 12 h at 25 V and RT in 25 mM Tris, 192 mM glycine and 10% vol/vol methanol. The membranes were blotted in 20 mM Tris–HCl pH 7.5 at RT, 150 mM NaCl, 0.01% vol/vol Tween 20 and 3% wt/vol fat-free milk solids (Apex, catalogue number 20241) using antibodies to the FLAG epitope (Sigma, F7425) and compatible horseradish peroxidase-conjugated secondary antibodies (Cytiva, NA934). The blots were developed by chemiluminescence (Perkin Elmer, NEL103001EA) and scanned on an Amersham ImageQuant 800 imaging system. For staining with Coomassie blue, gels were fixed in 50% vol/vol methanol and 10% vol/vol acetic acid for 30 min at RT, incubated for 30 min in 50% vol/vol methanol, 10% vol/vol acetic acid and 0.001% wt/vol Coomassie brilliant blue R-250 (Bio-Rad), and destained overnight in 10% vol/vol acetic acid before washing into water. The stained gels were digitized on an Epson Perfection V700 scanner using the Epson Scan 2 software. […]

Molecule: SQRLQSIKDHLVESRS [PTS2 peptide]
- Recruitment of PEX7–GFP to PEX5-21-coated beads (yeast PEX7 [1]): could recruit PEX7–GFP only in the presence of the PTS2 peptide

B1: GST-tagged wild-type yeast PEX39 (GST–PEX39) (natural protein, UniProt P47087 1-132, looked up)
chain: MAAGGELSYEELLDHILNNKPIPNIVEVPNVTLDEGLASTPSLRPRPRPWEGQLQHQSHQGSLDKPNISLDIDQESLEGMTSLTRLSECYDIQSKLQINDSDNDNDDNNNDNNKGDGNDDDNNTVTANPTAR
notes: PEX39, yeast; also called WT; PEX39-coated beads; source: E. coli BL21 Rosetta 2(DE3), purified, GST-tagged; not shown: GST, N-terminal, kept
- binding result [2]: binds
- binding result (yeast PEX7 [3]): binds

B2: KPWE peptide (residues 2–20 of S. cerevisiae PEX13 with an additional N-terminal cysteine) (peptide)
peptide: CSSTAVPRPKPWETSASLEE
notes: additional N-terminal cysteine for coupling to thiol-reactive agarose beads; PEX13, S. cerevisiae, residues 2–20; also called peptide comprising the KPWE motif of yeast PEX13; source: synthetic peptide (Genscript)
- binding result (yeast PEX7 [4]): binds
- binding result [5]: binds

B3: PEX7–FLAG: PEX7 with a short SG linker and a FLAG epitope tag at the C terminus (protein, UniProt O00628 1-323, looked up)
Peroxisomal targeting signal …: MSAVCGGAARMLRTPGRHGYAAEFSPYLPGRLACATAQHYGIAGCGTLLILDPDEAGLRLFRSFDWNDGLFDVTWSENNEHVLITCSGDGSLQLWDTAKAAGPLQVYKEHAQEVYSVDWSQTRGEQLVVSGSWDQTVKLWDPTVGKSLCTFRGHESIIYSTIWSPHIPGCFASASGDQTLRIWDVKAAGVRIVIPAHQAEILSCDWCKYNENLLVTGAVDCSLRGWDLRNVRQPVFELLGHTYAIRRVKFSPFHASVLASCSYDFTVRFWNFSKPDSLLETVEHHTEFTCGLDFSLQSPTQVADCSWDETIKIYDPACLTIPA
modifications: C-terminal SG linker and FLAG tag
- PEX7–FLAG function in protein import [6]: fully functional
- Enrichment in the membrane fraction [7]: considerably enriched in the membrane fraction in the absence of the KPWE motif

— article PMC12173945, “Import mechanism of peroxisomal proteins with an N-terminal signal sequence” (Nature Cell Biology, 2025)
